# B1: SDC25 (protein, UniProt P0CF34 1-1048, looked up)
# Putative truncated guanine …: MPITSSPDLFYLNDCDVVYWYDLTRLVCHYVNLTERDLLANEREKFLTSLDLLTAQITYVYMLFRNLRLVEDSFKKTLKKLIYTLSRFSINANIWFHSTLFEEREAIASQKDPERRSPLLQSILGTFQKFHFLLRLLHFLSNPNELTILPQLTPRFFKDSFNTISWNNPFLRKRLNQHMSHDLPRQMIKAVAGASGIVAENIDEIPASKQGTSCSSETSHHSPSAPFQRRRRGTIFSNVSGSSDESDTIWSKRKKPYPLNEETLSLVRARKKQLDGKLKQMIKSANEYLSNTANFSKMLNFEMNFKTYEEVSGTIPIIDILENLDLTIFLNLRELGDENRVFDEDVAIDDEDEEFLKHSLSSLSYILSDYFNMKQYFHDVVVKFIIVAQHLTLEDPFVFSPMQNDLPTGYYEPMKPSSLNLDNAKDKKNGSQNTDIQEEEDEYEPDPDSLILFHNLINQDSDFNDLKFFNLAHVFKKSCDDYFDVLKLAIEFVNQLILERENLLNYAARMMKNNITELLLRGEEGYGSYDGGETAEKSDTNAVYADSDTKDNDEWRDSQVKLPRYLQREYDSELIWGSNNRIKGGSKHALISYLTDNEKKDLFFDITFLITFRSIFTTTEFLSYLISQYNLDPPEDLCFEEYNEWVTKKLIPVKCRVVEIMTTFFKQYWFLGYDEPDLATLNLDYFAQVAIKENITGSVELLKEVNQKFKHGNIQEATAPMKTLDQQICQDHYSGTLYSTTESILAVDPVLFATQLTILEHEIYCEITIFDCLQKIWKNKYTKSYGASPGLNEFISFANKLTNFISYSVVKEADKSKRAKLLSHFIFIAEYCRKFNNFSSMTAIISALYSSPIYRLEKTWQAVIPQTRDLLQSLNKLMDPKKNFINYRNELKSLHSAPCVPFFGVYLSDLTFTDSGNPDYLVLEHGLKGVHDEKKYINFNKRSRLVDILQEIIYFKKTHYDFTKDRTVIECISNSLENIPHIEKQYQLSLIIEPKPRKKVVPNSNSNNKSQEKSRDDQTDEGKTSTKKDRFPKFQLHKTKKKAPKVSK
# B2: PIN3 (protein, UniProt Q06449 2-215, looked up)
# [PSI+] inducibility protein 3: SASLINRSLTNIRTELDFLKGSNVISNDVYDQINKSLPAKWDPANAPRNASPASLEYVEALYQFDPQQDGDLGLKPGDKVQLLEKLSPEWYKGSCNGRTGIFPANYVKPAFSGSNGPSNLPPPPQYKAQELQQIPTQNSAASSYQQQPFPPPSTNYYQQPQQQPQQAPPPQQQQQQQQHQSSHSHLKSFGSKLGNAAIFGAGASIGSDIVNNIF
# System: Abp1 PPIs
# Assay: DHFR-PCA of Abp1 SH3-swapped baits (Fig. 2B-D, S2C, S2F);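 on Protein-protein interaction distance between Abp1 SH3-swapped baits, to ABP1: Euclidean distance between DHFR-PCA score profiles of the baits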;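 on Protein-protein interaction distance between Abp1 SH3-swapped baits, to BEM1-2: Euclidean distance between DHFR-PCA score profiles of the baits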;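 on Protein-protein interaction distance between Abp1 SH3-swapped baits, to BOI1: Euclidean distance between DHFR-PCA score profiles of the baits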;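 on Protein-protein interaction distance between Abp1 SH3-swapped baits, to BZZ1-1: Euclidean distance between DHFR-PCA score profiles of the baits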
# Format: cell-based, Saccharomyces cerevisiae
# Conditions: for Protein-protein interaction distance between Abp1 SH3-swapped baits, to ABP1: Abp1 bait with swapped SH3, distance to bait with ABP1 SH3; for Protein-protein interaction distance between Abp1 SH3-swapped baits, to ABP1 / Protein-protein interaction distance between Abp1 SH3-swapped baits, to BBC1 / Protein-protein interaction distance between Abp1 SH3-swapped baits, to BEM1-1 / Protein-protein interaction distance between Abp1 SH3-swapped baits, to BEM1-2 / Protein-protein interaction distance between Abp1 SH3-swapped baits, to BOI1 / Protein-protein interaction distance between Abp1 SH3-swapped baits, to BOI2 / Protein-protein interaction distance between Abp1 SH3-swapped baits, to BUD14 / Protein-protein interaction distance between Abp1 SH3-swapped baits, to BZZ1-1 / Protein-protein interaction distance between Abp1 SH3-swapped baits, to BZZ1-2 / Protein-protein interaction distance between Abp1 SH3-swapped baits, to CDC25 / Protein-protein interaction distance between Abp1 SH3-swapped baits, to CTTN / Protein-protein interaction distance between Abp1 SH3-swapped baits, to CYK3 / Protein-protein interaction distance between Abp1 SH3-swapped baits, to DBNL / Protein-protein interaction distance between Abp1 SH3-swapped baits, to FUS1 / Protein-protein interaction distance between Abp1 SH3-swapped baits, to HCLS1 / Protein-protein interaction distance between Abp1 SH3-swapped baits, to HOF1 / Protein-protein interaction distance between Abp1 SH3-swapped baits, to HSE1 / Protein-protein interaction distance between Abp1 SH3-swapped baits, to LSB1 / Protein-protein interaction distance between Abp1 SH3-swapped baits, to LSB3 / Protein-protein interaction distance between Abp1 SH3-swapped baits, to MYO3 / Protein-protein interaction distance between Abp1 SH3-swapped baits, to MYO5 / Protein-protein interaction distance between Abp1 SH3-swapped baits, to NBP2 / Protein-protein interaction distance between Abp1 SH3-swapped baits, to PEX13 / Protein-protein interaction distance between Abp1 SH3-swapped baits, to PIN3 / Protein-protein interaction distance between Abp1 SH3-swapped baits, to RVS167 / Protein-protein interaction distance between Abp1 SH3-swapped baits, to SDC25 / Protein-protein interaction distance between Abp1 SH3-swapped baits, to SHO1 / Protein-protein interaction distance between Abp1 SH3-swapped baits, to SLA1-1 / Protein-protein interaction distance between Abp1 SH3-swapped baits, to SLA1-2 / Protein-protein interaction distance between Abp1 SH3-swapped baits, to SLA1-3 / Protein-protein interaction distance between Abp1 SH3-swapped baits, to YSC84: sheet Fig2C; for Protein-protein interaction distance between Abp1 SH3-swapped baits, to BBC1: distance to Abp1 bait with BBC1 SH3; for Protein-protein interaction distance between Abp1 SH3-swapped baits, to BEM1-1: distance to Abp1 bait with BEM1-1 SH3; for Protein-protein interaction distance between Abp1 SH3-swapped baits, to BEM1-2: distance to Abp1 bait with BEM1-2 SH3; for Protein-protein interaction distance between Abp1 SH3-swapped baits, to BOI1: distance to Abp1 bait with BOI1 SH3; for Protein-protein interaction distance between Abp1 SH3-swapped baits, to BOI2: distance to Abp1 bait with BOI2 SH3; for Protein-protein interaction distance between Abp1 SH3-swapped baits, to BUD14: distance to Abp1 bait with BUD14 SH3; for Protein-protein interaction distance between Abp1 SH3-swapped baits, to BZZ1-1: distance to Abp1 bait with BZZ1-1 SH3; for Protein-protein interaction distance between Abp1 SH3-swapped baits, to BZZ1-2: distance to Abp1 bait with BZZ1-2 SH3; for Protein-protein interaction distance between Abp1 SH3-swapped baits, to CDC25: distance to Abp1 bait with CDC25 SH3; for Protein-protein interaction distance between Abp1 SH3-swapped baits, to CTTN: distance to Abp1 bait with CTTN SH3; for Protein-protein interaction distance between Abp1 SH3-swapped baits, to CYK3: distance to Abp1 bait with CYK3 SH3; for Protein-protein interaction distance between Abp1 SH3-swapped baits, to DBNL: distance to Abp1 bait with DBNL SH3; for Protein-protein interaction distance between Abp1 SH3-swapped baits, to FUS1: distance to Abp1 bait with FUS1 SH3; for Protein-protein interaction distance between Abp1 SH3-swapped baits, to HCLS1: distance to Abp1 bait with HCLS1 SH3; for Protein-protein interaction distance between Abp1 SH3-swapped baits, to HOF1: distance to Abp1 bait with HOF1 SH3; for Protein-protein interaction distance between Abp1 SH3-swapped baits, to HSE1: distance to Abp1 bait with HSE1 SH3; for Protein-protein interaction distance between Abp1 SH3-swapped baits, to LSB1: distance to Abp1 bait with LSB1 SH3; for Protein-protein interaction distance between Abp1 SH3-swapped baits, to LSB3: distance to Abp1 bait with LSB3 SH3; for Protein-protein interaction distance between Abp1 SH3-swapped baits, to MYO3: distance to Abp1 bait with MYO3 SH3; for Protein-protein interaction distance between Abp1 SH3-swapped baits, to MYO5: distance to Abp1 bait with MYO5 SH3; for Protein-protein interaction distance between Abp1 SH3-swapped baits, to NBP2: distance to Abp1 bait with NBP2 SH3; for Protein-protein interaction distance between Abp1 SH3-swapped baits, to PEX13: distance to Abp1 bait with PEX13 SH3; for Protein-protein interaction distance between Abp1 SH3-swapped baits, to PIN3: distance to Abp1 bait with PIN3 SH3; for Protein-protein interaction distance between Abp1 SH3-swapped baits, to RVS167: distance to Abp1 bait with RVS167 SH3; for Protein-protein interaction distance between Abp1 SH3-swapped baits, to SDC25: distance to Abp1 bait with SDC25 SH3; for Protein-protein interaction distance between Abp1 SH3-swapped baits, to SHO1: distance to Abp1 bait with SHO1 SH3; for Protein-protein interaction distance between Abp1 SH3-swapped baits, to SLA1-1: distance to Abp1 bait with SLA1-1 SH3; for Protein-protein interaction distance between Abp1 SH3-swapped baits, to SLA1-2: distance to Abp1 bait with SLA1-2 SH3; for Protein-protein interaction distance between Abp1 SH3-swapped baits, to SLA1-3: distance to Abp1 bait with SLA1-3 SH3; for Protein-protein interaction distance between Abp1 SH3-swapped baits, to YSC84: distance to Abp1 bait with YSC84 SH3
# Outline: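 Yeast DHFR-PCA in which Abp1 baits, carrying their SH3 replaced by CRISPR–Cas9 with one of 27 yeast SH3s or human CTTN, HCLS1 or DBNL SH3s, were mated against 575 SH3-associated DHFR F[3] preys plus 40 negative controls. Four tests were run per PPI. Diploids were selected twice (48 h, 30 °C), then grown 4 days on PCA selection media.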
# [1] = number of PPIs, difference, Abp1 SH3-swapped with the listed SH3, Fig2D,S2F
Molecule,"Protein-protein interaction distance between Abp1 SH3-swapped baits, to ABP1","Protein-protein interaction distance between Abp1 SH3-swapped baits, to BBC1","Protein-protein interaction distance between Abp1 SH3-swapped baits, to BEM1-1","Protein-protein interaction distance between Abp1 SH3-swapped baits, to BEM1-2","Protein-protein interaction distance between Abp1 SH3-swapped baits, to BOI1","Protein-protein interaction distance between Abp1 SH3-swapped baits, to BOI2","Protein-protein interaction distance between Abp1 SH3-swapped baits, to BUD14","Protein-protein interaction distance between Abp1 SH3-swapped baits, to BZZ1-1","Protein-protein interaction distance between Abp1 SH3-swapped baits, to BZZ1-2","Protein-protein interaction distance between Abp1 SH3-swapped baits, to CDC25","Protein-protein interaction distance between Abp1 SH3-swapped baits, to CTTN","Protein-protein interaction distance between Abp1 SH3-swapped baits, to CYK3","Protein-protein interaction distance between Abp1 SH3-swapped baits, to DBNL","Protein-protein interaction distance between Abp1 SH3-swapped baits, to FUS1","Protein-protein interaction distance between Abp1 SH3-swapped baits, to HCLS1","Protein-protein interaction distance between Abp1 SH3-swapped baits, to HOF1","Protein-protein interaction distance between Abp1 SH3-swapped baits, to HSE1","Protein-protein interaction distance between Abp1 SH3-swapped baits, to LSB1","Protein-protein interaction distance between Abp1 SH3-swapped baits, to LSB3","Protein-protein interaction distance between Abp1 SH3-swapped baits, to MYO3",also measured
B1,33.14,31.85,25.75,6.672,29.16,28.39,24.65,32.5,29.97,14.8,27.81,15.21,31.69,24.28,34.87,7.905,31.59,37.12,36.63,35.91,"Protein-protein interaction distance between Abp1 SH3-swapped baits, to MYO5: 35.29; Protein-protein interaction distance between Abp1 SH3-swapped baits, to NBP2: 24.44; Protein-protein interaction distance between Abp1 SH3-swapped baits, to PEX13: 35.86; Protein-protein interaction distance between Abp1 SH3-swapped baits, to PIN3: 34.35; Protein-protein interaction distance between Abp1 SH3-swapped baits, to RVS167: 34.37; Protein-protein interaction distance between Abp1 SH3-swapped baits, to SDC25: 0.00; Protein-protein interaction distance between Abp1 SH3-swapped baits, to SHO1: 31.28; Protein-protein interaction distance between Abp1 SH3-swapped baits, to SLA1-1: 14.07; Protein-protein interaction distance between Abp1 SH3-swapped baits, to SLA1-2: 23.99; Protein-protein interaction distance between Abp1 SH3-swapped baits, to SLA1-3: 37.49; Protein-protein interaction distance between Abp1 SH3-swapped baits, to YSC84: 36.86"
B2,11.43,11.25,16.56,33.69,13.58,17.21,19.7,8.164,13.53,28.09,14.08,28.76,8.074,21.08,8.844,32.38,9.808,5.513,5.817,8.374,"Protein-protein interaction distance between Abp1 SH3-swapped baits, to MYO5: 6.67; Protein-protein interaction distance between Abp1 SH3-swapped baits, to NBP2: 18.8; Protein-protein interaction distance between Abp1 SH3-swapped baits, to PEX13: 5.433; Protein-protein interaction distance between Abp1 SH3-swapped baits, to PIN3: 0.00; Protein-protein interaction distance between Abp1 SH3-swapped baits, to RVS167: 5.294; Protein-protein interaction distance between Abp1 SH3-swapped baits, to SDC25: 34.35; Protein-protein interaction distance between Abp1 SH3-swapped baits, to SHO1: 9.004; Protein-protein interaction distance between Abp1 SH3-swapped baits, to SLA1-1: 30.57; Protein-protein interaction distance between Abp1 SH3-swapped baits, to SLA1-2: 21.49; Protein-protein interaction distance between Abp1 SH3-swapped baits, to SLA1-3: 6.016; Protein-protein interaction distance between Abp1 SH3-swapped baits, to YSC84: 5.862; PPIs gained by Abp1 - SH3-dependent PPIs gained by Abp1 [1]: 29; SH3-dependent PPIs - SH3-dependent PPIs gained by Abp1 [1]: 13; SH3-dependent PPIs gained by Abp1 (number of PPIs, Abp1 SH3-swapped with the listed SH3, DHFR-PCA, Fig2D,S2F): 0"

# — paper PMC7954794, “Protein context shapes the specificity of SH3 domain-mediated interactions in vivo” (Nature Communications, 2021)
